Results published in the supplement of paper PMC12636428.

tested on: Saccharomyces cerevisiae; test: transcriptional activation domain activity (GFP:mCherry ratio, weighted mean of sorted bins, harmonized to initial dataset scale) (arbitrary fluorescence ratio units); higher = stronger transcriptional activation; details: beta-estradiol 1 µM; induction time 4 h
Procedure, shortened: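 Each value is an activation activity: the read-weighted mean of bin median fluorescence, averaged across barcodes, then mapped linearly to the initial dataset scale. The tiles, fused to an estradiol-inducible synthetic transcription factor, sat at the yeast URA3 locus in GFP-reporter diploids. Cells spent 4 hours at 30 °C in SC with 1 uM beta-estradiol before sorting into 8 GFP:mCherry bins, and tiles below 50 reads were removed.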

Sequence	transcriptional activation domain activity
MLEGILGWSKWQKYSIKWYIWLPRLFFQSFFPFFSCPISLQKFSVLLFHFFFL	59700
DVDVDVGVDGRGRGFEAGDGREDGKGEEEGGRRLKRAGTDGEAVGGARAREVW	32500
FQTIHVDASCIGIASPLVHVELQPDLCGRKFPELIGIDLTAATLVRLLSLLCL	43000
EEKAPFDIPLDEFFTELEKHSNVSQFNTLDVSEGNQVINESASTNTSSALNCQ	103000
GLCLLYISGLVCATIVCYIEFTMHQSALLNATRLTPFMIAALCLTLFLNIIAT	57200
GKGEKDSKDNEKGEGEKKGENRRGRRRGGRGRGGGGDKDKENNKDGGGGRGEK	30500
RKLRTKIIELSGSVEAACALGVADGIVDLVESGETMRAAGLKAIDTVVDTQAV	29100
HSALSRSEVSGTGRKAYAQKGRGKARVGSLRAPHFRGGGRAFPVKPRDHSTKL	17000
VFLGMLFWHCRNYLTSYHYLFSTLAIWVLSYIMRLFYLNWSNPWRMSWLIGDE	58300
LLFFSLSLFKKKYLPFILFFFFFYSSLFFFFYPFLFNFFSFFLIFFFFFSLQV	34300
YYYFNYFYFYYFYYYFIIIIIILFYLILFLFLFLLLLLFIYFYFYFNYFYYLF	69700
PIGIFFFFPFVWLFRVFIFLCISYCCFLVPYVCSRGSSFFWLPVSTLFLSFLF	45000
ILLGLLVLVLLYANVVLIIYHEPTFRRPLDMAFIHAPIRLFFILPFGVLFWYS	63100
SSAKDIEGDGDGADVIRNNRLAKRSTAGVKVKKHVAQIIKMRKVTPRSIAYIA	40000
MAVIWGLDLKDMQWSKFKGSYMFNNVYHLRKVKMIVYQIAMILCVVSESVGTA	66800
RGGRRGRGERKREKEEKKRRKRKGKEKRATTEEGGRARRKEKKAVCGRRWSGG	46100
CLCLILLALLAVELMALFVVITLVILLLIVIVLSLILLFANLMLPLVFLLLYI	26400
IFFSQFGRYWIVFPGILFLTSVALSLILIVMLCIPGINLWTTISINLAIPYWA	27300
HKRKRTGQEEVAKKPKESRRDKKTRRKRTEPDEEIASADTKERRRKSAGAEKS	20800
KVVLLFAGWIIKIIVAKLMLAWSQSMRKVIVQRAQLVYRFGINGMVFYSIGCA	60400
MLTILAQNQWFYIIVYIILSYLVIFIIGLFPSVLFFRLRHLHYSFSFYLEYLA	32700

Sequence	transcriptional activation domain activity
MLLRRAVSLGVEGFFIFFYFLLMGLHCICLRGSSPWVDMFLFFVFFVSLVGFF	72200
RFLFQWDLELALSLCLSHTLGIISLPYKSIFISILWLIQSSWQLLFFLFWQPL	70400
MEHQDFFGFDYGLFDDNFPITSNSLRYDDLFHFEPLDLEQDDLGWGLPDPSLS	143000
EKEKERKHKHRSRRDRSRSRDSDGGRDRRHRHRRDRSRSRDAHDDRERRHRHS	19000
HSACDIYYDNICLRLRLEGDLESYSYTARIVVVVLQLERRPMRGVPFITLVFD	29400
MTYTFDLFSSFLSIVYMPHMATLYFLFFFLLLQCGYFIVLCFFFFHCVLCCFS	67000
PNDDFLLDCEEWGLNQLFGDEQFSNNINDLSDDLLALIPDWSFIPPSEDPWGL	147000
VLPPLLLAILFAVLPFILRGLAWYECIPRYSLISVSVYRRFFLFLLIHGFLIV	65300
GCLLTFPNKIDWATLVIILFSETFTICLLLIKGFYWVISSAHKVGDRVLYYVA	50800
MGARYWILECGDWLMAKAVPNSLPIVSFLFLLFFPWPFFVFILYLTLIALYSS	42400
PFTIVFILPFDFSSTQYRICEHNCDAPLGYISSQFTRRLWVVLYWTMYLLTWL	67000
GGGGGGAEGARGANESGGRGDGRRRGAGARARARQGGRGRGGGGRGGTKGGRG	9940
IFVYLRIKKCCCLNKSSLLLDVRLIHKNRDTVIIFARGLVGIFKKLSLRVVEC	51200
MNLTLFYYTFLLSFFLIYCVVLNLYLRFFPANFVNMPLFISLTFLKCAWIPLL	56200
KKLQNDILRPVDWIMYYYFASHIPITVLFDLQAIYPTNWVPQLLLDINAQYIN	37500
VNFLGLMYAPLFVLSNFGAANCQHNALLFKFNMHAFFLCFDLFLLYKTWVVAQ	49900
PQRLDMIHFPLIYVGCVGVLLFNPFKIFFGSARMYFLNTMWRLAFSGFYHVEF	40000
HAQPRAGDSTRPQESASSSDRPADASGEGGGISKKKKAKRSAAKEEGAGAEDP	37300
MTRAFTIMINLITIVLSFLMSQSFTSYVCHILLCPLANLRPQLLYIWWVSPVL	54200
SSSEDDGKAGEGSSSSSDSEKARGRKKAKKSKEKGKGKATEGNSSSSSSDDDS	21100
YSNSISNSNSNSTGNLNSSYFNSLNIDSMLDDYVSSDLLLNDDDDDTNLSRRR	88700

Sequence	transcriptional activation domain activity
VPVNPLALSPETGGPKKLPVARVLVDDEEDEEAKKLSTKPRLVIVGGGWGAVG	41900
GFTFYFSLHFHIFHIFHYLWEPRATILFFLTSLLFFFFTPIFTFMHCIIFIGF	78900
SLPYFLYICDWYLCNSFLYLSSILSFHCVYLCCFASIITLWFPAFFLTVILSI	51500
TRDDEEGGEEEEEEEEEEEEDEEDEDPESLPHIHKALEIHYQIHLSPTYSVPV	52700
DGCIFFALITFALMLRIATAFCMRGPIHAIFLPWSIVCYYYAGSHLLLNLRWY	46300
AYWVVLGIWWFIFQQHCPGPPLPMGKNYLTIGWKQIWLAVKQYKHMPYTFIYL	53300
KAAAMKKVLAKPADKTKKTSSAKNDTKKAAAKAAATKPKARTTKTAKAAAATK	7370
GEEGEMSLTKDDLVELLEQDDNGWCRRSAPPARNRPVPAKPAATTNTVRASPV	< 6570
YLAYCWQPDISWCPNLTLLNHWYNLTPYWFILMFIWNNLSCILMMINMIQLYF	67800
GKPRKRLAQACLTCREKKIKCEPGYPKCHQCAKSQRVCRGGLNQASIGNASGE	36100
TLRVDSLTGMIRIIRHVDFDGLPRPSGSGVITPFGIVFGGVCRGYWLWLWKVD	35800
RLMKKKKKSSLVFVFNHFRPVYVFLFFFSLYFFPFLSTPYFFPSFFFLFLFWV	49900
MACLVSGIGWCLLYFTCMYLLLIYYILSLFYPPLASCNSFSFFFLSFFFFAGR	59100
MLVRLQNRLLLLGIFSHCVYGWHLEVDYVSLSDAIQTVVVQCRNLTFHITGLG	53100
TVKNLYLFIIITTVNVVVLLICVAHFALVFMSRAGLSLHARQLTALMHAKFTH	49000
MYVLAISQTRAWTNLNLFRSCMVGLVNLCVILLKMLPIVVFCTLWYNVDLNIP	73400
AQLHHRTWLIHWSLFPFFNFEPAKETLTEMFFSPAYINTIQTNCPWILRYLAA	56700
MFGICTYSIPFLYFPPIPFVSYVSTLYFFVSHSISFHYLYIYCSIHLPFFLFI	69000
MRNEYYFFTSLSCIFSVLCFVSSFFYLVFSSLVLFFFFFLTGLFYLKFFCWVF	39400
MEVRQRKPGSGRPKGSKNKAKPPGTEPRPRKPGSGRPKGSKNKTTLAAAAAAA	30900
LMDSGGPDVRPPPKRARKAINCEPCRNSKLKCDRNRPCSSCVLRGTTSQCYQG	43700

Sequence	transcriptional activation domain activity
QTRQDEDHWQRVRELENQSSLYYLPIHEETPFFIDLIPNGFYLETKRSADNLF	92000
MAPKAPEASPPKRGRGRPRKAESEKKTKAYEPTGRPRGRPKGSGGVKKSVAAT	19600
YHVQQSNIQLYDNDQVHIFLRKHFLYWLEALSLIGRLYEGVLALKILESILTL	61500
VPLCVAVLLLLAPHPSILHVLLNYHYLTLHAPGYFVVHLLIIYALYFLAFSSL	34000
SPTLSHCTDYRTPALAYNILITCSLFLLFRPKPLILFWCLVCIGFWHVALFSQ	52500
GLLCWIAIRKLGIIGLYVYMDDFFGWDFLDNLIFYRGMRRPRRQVLLLILWEF	50700
NSFPKECEVVHEELRKLTHLVSALPREGLLYHGRLILRYLETVVCACLIMFDG	71100
QGAAKAVFEPHFSQKDDEGNIIKKKFAVACRVRNCTKLDRMTVISALAAAVGQ	46500
EEEEQAKTSPAKSESKKEKKDKKKKRSADEIESGPEGTPKVAKKIKADSGAAV	42700
AINTAKAEIDGVREIMTENIERVLERGEHMSVLVDKTGRLGENARDFRVRSRT	29100
MRLGQLYSLFLFPSFLLSFFIMPLVSVTKYTPGVDNIYFFFFLFFFFFLFFFL	36900
SWFIHFYILSLSCTVFWAVQFVIDGTVLEVIIKNQLARCTSSMTLSQVLLAWF	50300
PKEDVQPEPEAQPAESVEAAPASEEQAPVEKTEEAPATEETEESRPSPPAARL	37600
VLPVRFPKDCDQVFIACAVDCAELWRPGWKANIWVISHRRMIVSTVHIRHLSR	48200
FYGDISLSRRGFLIASMFILRLFRAISYLAFNAILVDMPTRQAILRFFHYFGR	50200
QASPEAAKAEGEKASPEAAKAEGEAQPAEGQKEGEAAKAEGEAAAAEAGAGAG	27600
SGNTGENEEDIAFASGLNGGTFDSMLEALPDDLYFTDFVSPFTAAATTSVTTK	85100
GAARVQVDFWFFLFVYYGLYNLTALIWITKVFNLYSLNWWPQSLGFPLTVSLI	61300
MTLCTFFGCLLTAYSPLLSIFFLYIAPNAQYVLLMVASAFFCLLALLLSSVIW	55000
KGANQAVACAKLSRSRPQPSSSTSSSSTEAGANDAETHATAHVSMLGAVGDDS	18700
